Laboratory results from patent publication US12065471B2, “B*44 restricted peptides for use in immunotherapy against cancers and related methods” (Immatics Biotechnologies GmbH, priority 2018, dated 2024).

System: CD8+ T cells
Assay: In vitro immunogenicity: T-cell priming with aAPCs loaded with peptide/MHC and anti-CD28, pMHC multimer readout
Type: cell-based, human
Details: Table 10a, pMHC multimer readout after T-cell priming
Method: After three cycles of stimulation, the detection of peptide-reactive cells was performed by 2D multimer staining with B*44/SEQ ID NO: 469 (FIG. 3A), B*44/SEQ ID NO: 512 (FIG. 3B), B*44/SEQ ID NO: 9 (FIG. 3C), B*44/SEQ ID NO: 11 (D), B*44/SEQ ID NO: 17 (E), B*44/SEQ ID NO: 35 (F) or B*44/SEQ ID NO: 41 (FIG. 3G). Right panels (FIGS. 3A through 3G) show control staining of cells stimulated with irrelevant B*44/peptide complexes. Viable singlet cells were gated for CD8+ lymphocytes. Boolean gates helped excluding false-positive events detected with multimers specific for different peptides.
In order to obtain information regarding the immunogenicity of the TUMAPs of the present invention, the inventors performed investigations using an in vitro T-cell priming assay based on repeated stimulations of CD8+ T cells with artificial antigen presenting cells (aAPCs) loaded with peptide/MHC complexes and anti-CD28 antibody.
In order to perform in vitro stimulations by artificial antigen presenting cells loaded with peptide-MHC complex (pMHC) and anti-CD28 antibody, the inventors first isolated CD8+ T cells from fresh HLA-A*02 leukapheresis products via positive selection using CD8 microbeads (Miltenyi Biotec, Bergisch-Gladbach, Germany) of healthy donors obtained from the University clinics Mannheim, Germany, after informed consent.
PBMCs and isolated CD8+ lymphocytes were incubated in T-cell medium (TCM) until use consisting of RPMI-Glutamax (Invitrogen, Karlsruhe, Germany) supplemented with 10% heat inactivated human AB serum (PAN-Biotech, Aidenbach, Germany), 100 U/ml Penicillin/100 μg/ml Streptomycin (Cambrex, Cologne, Germany), 1 mM sodium pyruvate (CC Pro, Oberdorda, Germany), 20 μg/ml Gentamycin (Cambrex). 2.5 ng/ml IL-7 (PromoCell, Heidelberg, Germany) and 10 U/ml IL-2 (Novartis Pharma, Nümberg, Germany) were also added to the TCM at this step.
Generation of pMHC/anti-CD28 coated beads, T-cell stimulations and readout was performed in a highly defined in vitro system using four different pMHC molecules per stimulation condition and 8 different pMHC molecules per readout condition.
The purified co-stimulatory mouse IgG2a anti human CD28 Ab 9.3 (Jung et al., 1987) was chemically biotinylated using Sulfo-N-hydroxysuccinimidobiotin as recommended by the manufacturer (Perbio, Bonn, Germany). Beads used were 5.6 μm diameter streptavidin coated polystyrene particles (Bangs Laboratories, Illinois, USA).
800.000 beads/200 μl were coated in 96-well plates in the presence of 4×12.5 ng different biotin-pMHC, washed and 600 ng biotin anti-CD28 were added subsequently in a volume of 200 μl. Stimulations were initiated in 96-well plates by co-incubating 1×10^6 CD8+ T cells with 2×10^5 washed coated beads in 200 μl TCM supplemented with 5 ng/ml IL-12 (PromoCell) for 3 days at 37° C. Half of the medium was then exchanged by fresh TCM supplemented with 80 U/ml IL-2 and incubating was continued for 4 days at 37° C. This stimulation cycle was performed for a total of three times. For the pMHC multimer readout using 8 different pMHC molecules per condition, a two-dimensional combinatorial coding approach was used as previously described (Andersen et al., 2012) with minor modifications encompassing coupling to 5 different fluorochromes. Finally, multimeric analyses were performed by staining the cells with Live/dead near IR dye (Invitrogen, Karlsruhe, Germany), CD8-FITC antibody clone SK1 (BD, Heidelberg, Germany) and fluorescent pMHC multimers. For analysis, a BD LSRII SORP cytometer equipped with appropriate lasers and filters was used. Peptide specific cells were calculated as percentage of total CD8+ cells. Evaluation of multimeric analysis was done using the FlowJo software (Tree Star, Oregon, USA). In vitro priming of specific multimer+CD8+ lymphocytes was detected by comparing to negative control stimulations.

**Q.** How did the “Wells positive [%]” value turn out when “496 (AEIGEGAYGKVF; listed as Homo sapiens) [compound 496]” was run?
**A.** ++ (20%-49% = ++)

**Q.** For “501 (KEGDLGGKQW; listed as Homo sapiens) [compound 501]”, which “Wells positive [%]” value is on record?
**A.** + (<20% = +)

**Q.** “492 (AEHNFVAKA; listed as Homo sapiens) [compound 492]” was tested. Which “Wells positive [%]” value did it give?
**A.** + (<20% = +)

**Q.** Which “Wells positive [%]” value does the source give for “489 (SEYADTHYF; listed as Homo sapiens) [compound 489]” here?
**A.** +++ (50%-69% = +++)

**Q.** How did the “Wells positive [%]” value turn out when “509 (AESEDLAVHLY; listed as Homo sapiens) [compound 509]” was run?
**A.** + (<20% = +)

**Q.** For “479 (QENSYQSRL; listed as Homo sapiens) [compound 479]”, which “Wells positive [%]” value is on record?
**A.** + (<20% = +)

**Q.** For “495 (RENQVLGSGW; listed as Homo sapiens) [compound 495]”, which “Wells positive [%]” value is on record?
**A.** +++ (50%-69% = +++)

**Q.** With “516 (DEYLIPQQGF; listed as Homo sapiens) [compound 516]” as the substance, how does the “Wells positive [%]” value read?
**A.** + (<20% = +)

**Q.** Which “Wells positive [%]” value does the source give for “518 (FELPTGAGL; listed as Homo sapiens) [compound 518]” here?
**A.** ++ (20%-49% = ++)

**Q.** How did the “Wells positive [%]” value turn out when “511 (AEAVLKTLQEL; listed as Homo sapiens) [compound 511]” was run?
**A.** + (<20% = +)

**Q.** “500 (QEVLLQTFL; listed as Homo sapiens) [compound 500]” was tested. Which “Wells positive [%]” value did it give?
**A.** + (<20% = +)

**Q.** For “513 (AEKDGKLTDY; listed as Homo sapiens) [compound 513]”, which “Wells positive [%]” value is on record?
**A.** + (<20% = +)

**Q.** “470 (EDAQGHIW; listed as Homo sapiens) [compound 470]” was tested. Which “Wells positive [%]” value did it give?
**A.** ++ (20%-49% = ++)

Biological target: HLA-B*44:05 (Homo sapiens, UniProt P01889, A223V/A65T/A93T/A95T/D201E/D98Y/E176V/E187L/E204Q/E69K/G107R/H137Y/K202T/L105A/L119I/N104T/N87E/Q56L/Q94N/R106L/R155S/R180D/S101N/S121R/S35A/S48T/T118I/V36M/W191S/Y91S)
Assay: MHC binding assay (UV-ligand exchange, β2m ELISA, peptide exchange yield)
Details: binding to HLA-B*44:05
Procedure, shortened: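 Peptide–HLA complexes formed by UV-ligand exchange of a UV-cleavable peptide for the test peptide. Exchange yield measured by β2m ELISA: complexes diluted 100-fold and captured on streptavidin, detected with HRP anti-β2m and TMB, read at 450 nm. Quantified against refolded HLA-A*02:01/MLA-001 monomer standards, 15-500 ng/ml.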

**Q.** How did the “Peptide exchange (MHC class I binding score, peptide exchange yield)” value (“Peptide exchange” below) turn out when “170 (REMFVFKDQW; listed as Homo sapiens) [compound 170]” was run?
**A.** ++++ (>75% = ++++)

**Q.** With “449 (RENDFEPKF; listed as Homo sapiens) [compound 449]” as the substance, how does the “Peptide exchange” value read?
**A.** +++ (>50 = +++)

**Q.** Which “Peptide exchange” value does the source give for “255 (KQWEYNEKLAF; listed as Homo sapiens) [compound 255]” here?
**A.** + (>10% = +)

**Q.** How did the “Peptide exchange” value turn out when “334 (LEWQNSSSM; listed as Homo sapiens) [compound 334]” was run?
**A.** +++ (>50 = +++)

**Q.** For “394 (SEILRVTLY; listed as Homo sapiens) [compound 394]”, which “Peptide exchange” value is on record?
**A.** +++ (>50 = +++)

**Q.** With “127 (RYFDENIQKFIW; listed as Homo sapiens) [compound 127]” as the substance, how does the “Peptide exchange” value read?
**A.** +++ (>50 = +++)

**Q.** How did the “Peptide exchange” value turn out when “244 (VESSQAFTW; listed as Homo sapiens) [compound 244]” was run?
**A.** +++ (>50 = +++)

**Q.** For “55 (TEFHMQFSY; listed as Homo sapiens) [compound 55]”, which “Peptide exchange” value is on record?
**A.** ++++ (>75% = ++++)

**Q.** For “77 (QETLAESTW; listed as Homo sapiens) [compound 77]”, which “Peptide exchange” value is on record?
**A.** +++ (>50 = +++)

**Q.** For “298 (KEVASNSEL; listed as Homo sapiens) [compound 298]”, which “Peptide exchange” value is on record?
**A.** +++ (>50 = +++)

**Q.** For “452 (NEVDGEYRY; listed as Homo sapiens) [compound 452]”, which “Peptide exchange” value is on record?
**A.** +++ (>50 = +++)

**Q.** “314 (EMREERKF; listed as Homo sapiens) [compound 314]” was tested. Which “Peptide exchange” value did it give?
**A.** ++ (>20% = ++)

**Q.** With “203 (REILHAQTL; listed as Homo sapiens) [compound 203]” as the substance, how does the “Peptide exchange” value read?
**A.** +++ (>50 = +++)

**Q.** How did the “Peptide exchange” value turn out when “58 (KEMDPSRQSY; listed as Homo sapiens) [compound 58]” was run?
**A.** +++ (>50 = +++)

**Q.** Which “Peptide exchange” value does the source give for “338 (AEMKFYVVI; listed as Homo sapiens) [compound 338]” here?
**A.** +++ (>50 = +++)

**Q.** For “277 (VEFPATRSL; listed as Homo sapiens) [compound 277]”, which “Peptide exchange” value is on record?
**A.** +++ (>50 = +++)

**Q.** Which “Peptide exchange” value does the source give for “431 (QELLDFTNW; listed as Homo sapiens) [compound 431]” here?
**A.** ++++ (>75% = ++++)

**Q.** “168 (EEGPSVPKIY; listed as Homo sapiens) [compound 168]” was tested. Which “Peptide exchange” value did it give?
**A.** ++ (>20% = ++)

**Q.** How did the “Peptide exchange” value turn out when “90 (EESLLSSW; listed as Homo sapiens) [compound 90]” was run?
**A.** +++ (>50 = +++)

**Q.** Which “Peptide exchange” value does the source give for “99 (SECVKSLSF; listed as Homo sapiens) [compound 99]” here?
**A.** ++++ (>75% = ++++)

**Q.** For “89 (KEFYPVKEF; listed as Homo sapiens) [compound 89]”, which “Peptide exchange” value is on record?
**A.** ++ (>20% = ++)

**Q.** With “280 (AAEPLVGQRW; listed as Homo sapiens) [compound 280]” as the substance, how does the “Peptide exchange” value read?
**A.** ++ (>20% = ++)

**Q.** For “233 (QEDKATQTL; listed as Homo sapiens) [compound 233]”, which “Peptide exchange” value is on record?
**A.** ++++ (>75% = ++++)

**Q.** For “354 (TEIMEKTTL; listed as Homo sapiens) [compound 354]”, which “Peptide exchange” value is on record?
**A.** +++ (>50 = +++)

**Q.** Which “Peptide exchange” value does the source give for “220 (EEEVFSGMKL; listed as Homo sapiens) [compound 220]” here?
**A.** ++++ (>75% = ++++)

**Q.** “34 (AEPPILYSEY; listed as Homo sapiens) [compound 34]” was tested. Which “Peptide exchange” value did it give?
**A.** ++ (>20% = ++)

**Q.** With “262 (YENILNAI; listed as Homo sapiens) [compound 262]” as the substance, how does the “Peptide exchange” value read?
**A.** ++ (>20% = ++)

**Q.** For “116 (AEANPRDLGASW; listed as Homo sapiens) [compound 116]”, which “Peptide exchange” value is on record?
**A.** +++ (>50 = +++)

**Q.** With “287 (REVSVVDIL; listed as Homo sapiens) [compound 287]” as the substance, how does the “Peptide exchange” value read?
**A.** ++++ (>75% = ++++)

**Q.** Which “Peptide exchange” value does the source give for “226 (AEDNMVTSY; listed as Homo sapiens) [compound 226]” here?
**A.** +++ (>50 = +++)

**Q.** For “107 (YQENPRAAW; listed as Homo sapiens) [compound 107]”, which “Peptide exchange” value is on record?
**A.** ++ (>20% = ++)

**Q.** “87 (GEARGDQVDW; listed as Homo sapiens) [compound 87]” was tested. Which “Peptide exchange” value did it give?
**A.** ++++ (>75% = ++++)

**Q.** For “276 (SEYQDGKEF; listed as Homo sapiens) [compound 276]”, which “Peptide exchange” value is on record?
**A.** ++ (>20% = ++)

**Q.** With “320 (AENPLNIFY; listed as Homo sapiens) [compound 320]” as the substance, how does the “Peptide exchange” value read?
**A.** ++++ (>75% = ++++)

**Q.** “400 (TELGLFGVW; listed as Homo sapiens) [compound 400]” was tested. Which “Peptide exchange” value did it give?
**A.** ++++ (>75% = ++++)

**Q.** For “401 (VENIFHNF; listed as Homo sapiens) [compound 401]”, which “Peptide exchange” value is on record?
**A.** ++ (>20% = ++)

**Q.** For “359 (NEFRRKLTF; listed as Homo sapiens) [compound 359]”, which “Peptide exchange” value is on record?
**A.** +++ (>50 = +++)
